Results published in publication PMC6779109, “The Glutamate Receptor-Like Protein GLR3.7 Interacts With 14-3-3ω and Participates in Salt Stress Response in Arabidopsis thaliana” (Frontiers in Plant Science, 2019).
Where no end group is shown, it is not given here.

B1: Phosphorylated GST-GLR3.7 P0 recombinant fusion peptide (peptide)
chain: RYRRMERTSSMPRA
modifications: also: phosphorylated, site not given here, fused to GST
notes: C-terminal fragment of AtGLR3.7 holding Thr-858, Ser-859 and Ser-860; also called G-P0-phosphorylated fusion peptide; phosphorylated G-GLR3.7 P0; not shown: RFP (from the NRV vector)
B2: GST-GLR3.7 P0 recombinant fusion peptide (nonphosphorylated) (peptide)
chain: RYRRMERTSSMPRA
modifications: also: GST fusion
notes: C-terminal fragment of AtGLR3.7 holding Thr-858, Ser-859 and Ser-860; Cloned between AscI and NotI of the NRV vector (GST, RFP, Strep-tags; Curran et al., 2011) with the amino acids APG after the restriction site; fusion protein about 55 kD; also called G-P0; G-GLR3.7 P0; not shown: RFP (from the NRV vector)

Target: T1, 6His-14-3-3ω recombinant protein (Arabidopsis thaliana, UniProt Q01525 1-259)
T1 construct: 14-3-3ω (GF14/omega) of Arabidopsis thaliana; also called At14-3-3ω; GF14/omega; source: E. coli, purified (Ni-NTA)
T1 sequence (looked up): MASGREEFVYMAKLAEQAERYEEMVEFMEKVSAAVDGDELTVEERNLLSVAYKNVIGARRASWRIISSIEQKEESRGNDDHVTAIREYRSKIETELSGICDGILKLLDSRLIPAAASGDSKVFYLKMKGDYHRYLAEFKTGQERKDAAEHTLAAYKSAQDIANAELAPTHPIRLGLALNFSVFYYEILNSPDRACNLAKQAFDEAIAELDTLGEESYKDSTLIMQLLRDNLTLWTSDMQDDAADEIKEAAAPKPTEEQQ
Assay: quartz crystal microbalance; GST fusion peptide coated on the sensor to saturation, 6His-14-3-3ω injected into PBS; AFFINIX QN μ, Kd by AQUA software
Settings: both partners purified

| Binder | Kd [nM] |
| --- | --- |
| B1 | 2.31 |
| B2 | 1770 |
